Data from the supplement of paper PMC10567573.

B1: SMAD6 (parent)
chain: SGLVRRLWRSRVVPDREEGGSGGG
B2: ZNF263 (parent)
chain: HLTRHQRTHTGEKPYKCTLCGENF

Variants of: B1
Assay: protein stability index of a GFP-peptide fusion (GPS, HEK-293T) (PSI 1-6); higher = more stable
Conditions: c terminus: a fixed tail appended
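Further: lentivirally expressed fusions sorted by FACS into six bins by GFP to DsRed ratio, PSI derived from sequencing read proportions per bin multiplied by bin number.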

Protein stability index of substitutions, site by site:
R5: Q 3.72 | C 2.46 | L 1.97 | S 3.27 | A 3.76 | H 4.21 | I 2.4 | M 3.3
S10: H 2.24 | F 2.4 | A 3.76 | W 2.6 | N 3.89
R11: T 4.68 | I 2.63 | K 4.15 | W 2.22 | G 4.98
L3: N 4.73 | W 4.17 | S 4.38 | M 4.06 | T 3.54 | Q 3.88
R16: W 3.25 | E 4.32 | I 3.76 | N 4.37 | Q 3.67 | S 4.7 | L 3.34 | M 3.4
R6: S 3.29 | M 2.93 | A 3.27 | H 4 | C 3.46
S1: C 2.09 | H 3.81 | M 2.45 | Q 5.24 | I 2.92 | W 2.61
P14: K 4.3 | D 2.83 | Y 3.02 | L 3.18 | N 3.77
G2: K 3.6 | N 4.17 | H 4.14 | F 2.93 | D 2.93 | W 2.29 | V 3.03 | E 2.35 | A 2.15 | L 3.51 | P 4.79 | M 3.19 | S 4.17
L7: I 4.14 | S 4 | Q 4.4 | E 3.82 | H 3.55 | Y 3.82
V4: K 4.45 | E 4.63 | G 3.41
E17: T 3.31 | S 4.07 | A 3.47 | R 2.93 | D 4.12 | V 3.71 | G 3.86 | C 4.26 | K 4.14
V13: L 3.99 | W 3.37 | F 3.32 | D 4.88 | K 4.13
R9: H 3.69 | G 3.27 | N 3.96 | T 2.82 | P 4.85
V12: C 2.94 | I 4.07 | P 3.67 | D 4.76 | M 4.06 | F 3.69 | N 4.22 | Y 3.1
D15: M 3.01 | K 3.35 | N 3.96 | I 2.75 | P 3.62 | H 3.55 | E 4.31 | T 4.33
W8: N 5.26 | L 4.22 | K 4.64 | Q 5 | S 5.1

Variants of: B2
Assay: as above
Conditions: c terminus: a fixed tail appended

Protein stability index: each site, then its substitutions
L19: G 2.56 | R 3.03 | V 2.86 | K 3.7 | Y 2.39 | T 3.64 | M 2.83 | P 2.7 | D 3.84 | N 3.68 | W 2.75 | S 3.14 | H 2.94 | Q 2.98 | C 3.88 | A 3.23 | I 3.15 | F 2.62 | E 3.36
N23: C 3.13 | W 2.57 | R 3.08 | T 2.83 | K 3.22 | Q 2.63 | M 2.3 | Y 2.53 | L 2.34 | S 2.7 | G 4.03 | D 3.33 | P 2.54 | F 2.33 | I 2.57 | H 1.98 | A 2.68 | E 2.75 | V 1.85
T18: M 2.42 | N 2.81 | F 2.56 | L 2.49 | C 2.54 | Q 2.68 | Y 3.09 | P 2.4 | I 2.36 | H 2.65 | A 2.94 | R 2.68 | W 2.54 | K 2.98 | D 2.75 | E 3.78 | S 2.84 | G 2.45 | V 2.42
